Test results from patent US20240164355A1 (VANDERBILT UNIVERSITY, published 2024).

B1: His6-CinA (CinA^wPip, wPa_0294, His6-tagged) (other)
chain: MESGLDHNYNKILDILKGAIKGDDNQVKARKHLRVERWLRAYIQLIEDFDEEKLIFFSDIFSDNSCWDGIKLKNKAVGERLTEEKNKNGKENPLDLADRYYLACKYCLEDKIPGLFEQVFMRFKRSAFEEDGSDDDLRRELLENIEETSPIEAFWSFLIDKQIGKLNEYKSVEGLQKSIQINSNKNWEEGIEFFYNKLHNDSSISSQDKDDLLIEAALSAVKGYKEVDTIEFCLSKMDDEQKKKLLDRDYKENTYYAVLNVLVGQYYFDSFMELSRLCSQIECERYTTFLSSLSDQVLKNPDLSEETKKCMMNVWERIIKLKTQDRGEQSISSIFVDYSVTYTIANLIVDPSRQGVSKEEILGKILKHVKEMSGEEMIKVKDSVLSKIQLFHGGKKLQLGEQVFSKLAQEASKESILREAGDTLPQSSLSTTDTPYNIKSLSHSK
B2: His6-CidA (CidA^wPip, wPa_0282, N-terminally His6-tagged) (other)
chain: MPTQKELRDTMSKKLQEAIKHPDPAVVAGRKSAIKRWVGVLQDNFMEHIKYFKGDKLKFLHNVFQDEGCWSGVRLDNAALGQRFTEEKIGGIDNPLRKYEMACSYCVVDKIHPLFQKRFESYRNKFPPGAFDGKTETEFGKYVRNSLLDSIKRKGPVFDFWIDRESGELKKYDAVEGFDSAVKFKWSEGVEYFYNHLKEEDKEKKLTEAILALSRVQSVEKDAPILDFCVNKIVDKDTLLQKLSQKDKGVYSLFAELIESCFFDTVHDLVQCWCYKEVSAGGDHSEKIFSQRDYELFLSSLSDTMLKNPELSVQARSLIMEFWECGSLYQYRKAAVNTSNYTVPTSGVFAELIVNWRREDIYKTDEEKEIEKKEILDMMSFAKDCFPEKFELFKKLIIRDLRLCGREGKRVNVDYGLFAEELFSELEKTILPPGPVGDGPCSNLRSRSKAHGSKKTTLPVDDSPQSELGTPSVSGVSSYKKKSVFTLSGNK
notes: also called His6-tagged CidA; antidote

How the values were obtained:
[1] = molecular target: T1, CinB (CinB^wPip, wPa_0295), co-expressed with His6-CinA from the full operon in E. coli (Wolbachia pipientis, wPip strain); experiment: summary of the pulldown experiments of Example 2
T1 construct: also called putative DUF1703 nuclease
T1 chain: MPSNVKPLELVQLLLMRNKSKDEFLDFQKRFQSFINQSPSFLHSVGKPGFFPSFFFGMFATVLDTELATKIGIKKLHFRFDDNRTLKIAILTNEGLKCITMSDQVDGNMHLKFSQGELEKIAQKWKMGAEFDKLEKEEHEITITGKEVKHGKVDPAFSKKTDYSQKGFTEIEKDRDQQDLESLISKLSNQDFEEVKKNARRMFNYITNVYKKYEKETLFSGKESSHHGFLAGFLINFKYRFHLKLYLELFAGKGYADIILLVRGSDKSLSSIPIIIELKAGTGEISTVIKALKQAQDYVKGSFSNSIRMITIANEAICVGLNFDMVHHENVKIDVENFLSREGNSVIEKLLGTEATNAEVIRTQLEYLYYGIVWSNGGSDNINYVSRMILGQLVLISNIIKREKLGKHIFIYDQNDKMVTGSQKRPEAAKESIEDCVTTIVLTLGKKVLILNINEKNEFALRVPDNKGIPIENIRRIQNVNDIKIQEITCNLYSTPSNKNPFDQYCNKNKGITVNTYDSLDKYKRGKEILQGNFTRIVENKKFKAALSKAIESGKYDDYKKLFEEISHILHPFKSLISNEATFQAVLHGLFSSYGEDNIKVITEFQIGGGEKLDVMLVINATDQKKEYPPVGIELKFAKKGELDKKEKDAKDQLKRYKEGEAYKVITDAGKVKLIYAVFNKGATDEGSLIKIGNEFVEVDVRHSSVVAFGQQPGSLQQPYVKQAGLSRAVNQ

[2] = molecular target: T2, CidB (CidB^wPip, wPa_0283), co-expressed with His6-CidA from the full operon in E. coli (Wolbachia pipientis, wPip strain); experiment: summary of the pulldown experiments of Example 2
T2 construct: also called toxin
T2 chain: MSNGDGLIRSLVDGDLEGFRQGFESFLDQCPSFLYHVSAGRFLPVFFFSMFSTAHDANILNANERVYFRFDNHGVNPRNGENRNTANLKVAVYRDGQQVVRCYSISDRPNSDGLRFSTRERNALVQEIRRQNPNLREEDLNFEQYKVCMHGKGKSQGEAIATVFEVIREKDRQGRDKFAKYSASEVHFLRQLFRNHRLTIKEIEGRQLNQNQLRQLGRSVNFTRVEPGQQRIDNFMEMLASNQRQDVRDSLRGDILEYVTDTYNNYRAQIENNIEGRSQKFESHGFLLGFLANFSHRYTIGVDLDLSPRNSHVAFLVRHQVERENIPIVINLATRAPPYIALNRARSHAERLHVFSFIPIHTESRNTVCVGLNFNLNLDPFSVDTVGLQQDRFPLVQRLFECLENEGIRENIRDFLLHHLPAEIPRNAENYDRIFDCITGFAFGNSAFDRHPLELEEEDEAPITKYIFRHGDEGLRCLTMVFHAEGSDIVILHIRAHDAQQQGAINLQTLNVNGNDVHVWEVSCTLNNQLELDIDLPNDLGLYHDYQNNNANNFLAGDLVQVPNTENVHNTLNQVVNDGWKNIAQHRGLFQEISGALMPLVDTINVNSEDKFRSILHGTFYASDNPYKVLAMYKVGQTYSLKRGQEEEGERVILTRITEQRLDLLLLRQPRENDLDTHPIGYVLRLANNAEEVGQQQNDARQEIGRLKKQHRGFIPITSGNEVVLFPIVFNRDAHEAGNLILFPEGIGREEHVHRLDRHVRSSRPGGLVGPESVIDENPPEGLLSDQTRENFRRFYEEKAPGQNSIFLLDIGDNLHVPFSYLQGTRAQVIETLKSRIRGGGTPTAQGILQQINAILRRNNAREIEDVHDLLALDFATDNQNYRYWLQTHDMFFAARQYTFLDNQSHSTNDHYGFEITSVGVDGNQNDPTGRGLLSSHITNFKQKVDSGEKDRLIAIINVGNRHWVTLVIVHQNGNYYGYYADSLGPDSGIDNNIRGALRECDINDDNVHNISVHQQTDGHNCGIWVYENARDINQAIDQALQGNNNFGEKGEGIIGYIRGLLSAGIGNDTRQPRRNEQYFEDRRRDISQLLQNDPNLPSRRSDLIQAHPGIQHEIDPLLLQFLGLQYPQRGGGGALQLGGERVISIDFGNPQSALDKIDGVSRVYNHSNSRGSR

Row | Binder | binding result [1] | binding result [2]
1 | B1 | binds | 
2 | B2 |  | binds
